Assay results: the Human Domainome abundance scans (Beltran et al. 2025)
± gives the uncertainty stated by the source.

B1: Zinc finger homeobox protein 4, residues 2086 to 2141; numbered along this chain, Q86UP3 (parent)
chain: RPRTRITDDQLKILRAYFDINNSPSEEQIQEMAEKSGLSQKVIKHWFRNTLFKERQ

Variants of: B1
Assay: abundance fitness (aPCA) (normalised: wild type 0, dead -1); higher = more abundant; growth selection in yeast, the domain comes from the species named
Conditions: Homo sapiens

Point of comparison: RPRTRITDDQLKILRAYFDINNSPSEEQIQEMAEKSGLMQKVIKHWFRNTLFKERQ, abundance fitness 0.217 ± 0.34. Against it:
- RPRTRITDDQLKILRAYFDINNSPSEEQIQEMAEKSGLPQKVIKHWFRNTLFKERQ — within error, -0.115 ± 0.34
- RPRTRITDDQLKILRAYFDINNSPSEEQIQEMAEKSGLKQKVIKHWFRNTLFKERQ — within error, 0.081 ± 0.26
- RPRTRITDDQLKILRAYFDINNSPSEEQIQEMAEKSGLRQKVIKHWFRNTLFKERQ — within error, 0.007 ± 0.21
- RPRTRITDDQLKILRAYFDINNSPSEEQIQEMAEKSGLAQKVIKHWFRNTLFKERQ — within error, -0.163 ± 0.25
- RPRTRITDDQLKILRAYFDINNSPSEEQIQEMAEKSGLGQKVIKHWFRNTLFKERQ — within error, -0.227 ± 0.18
- RPRTRITDDQLKILRAYFDINNSPSEEQIQEMAEKSGLCQKVIKHWFRNTLFKERQ — lower, -0.395 ± 0.17
- RPRTRITDDQLKILRAYFDINNSPSEEQIQEMAEKSGLTQKVIKHWFRNTLFKERQ — within error, -0.135 ± 0.31
- RPRTRITDDQLKILRAYFDINNSPSEEQIQEMAEKSGLLQKVIKHWFRNTLFKERQ — lower, -0.767 ± 0.25
- RPRTRITDDQLKILRAYFDINNSPSEEQIQEMAEKSGLYQKVIKHWFRNTLFKERQ — within error, -0.14 ± 0.48
- RPRTRITDDQLKILRAYFDINNSPSEEQIQEMAEKSGLFQKVIKHWFRNTLFKERQ — within error, -0.323 ± 0.28
- RPRTRITDDQLKILRAYFDINNSPSEEQIQEMAEKSGLWQKVIKHWFRNTLFKERQ — lower, -1.16 ± 0.33
- RPRTRITDDQLKILRAYFDINNSPSEEQIQEMAEKSGLEQKVIKHWFRNTLFKERQ — within error, 0.127 ± 0.21
- RPRTRITDDQLKILRAYFDINNSPSEEQIQEMAEYSGLSQKVIKHWFRNTLFKERQ — lower, -0.537 ± 0.15
- RPRTRITDDQLKILRAYFDINNSPSEEQIQEMAEESGLSQKVIKHWFRNTLFKERQ — within error, -0.215 ± 0.1
- RPRTRITDDQLKILRAYFDINNSPSEEQIQEMAEGSGLSQKVIKHWFRNTLFKERQ — lower, -0.242 ± 0.07
- RPRTRITDDQLKILRAYFDINNSPSEEQIQEMAELSGLSQKVIKHWFRNTLFKERQ — lower, -0.261 ± 0.072
- RPRTRITDDQLKILRAYFDINNSPSEEQIQEMAEDSGLSQKVIKHWFRNTLFKERQ — lower, -0.375 ± 0.12
- RPRTRITDDQLKILRAYFDINNSPSEEQIQEMAEMSGLSQKVIKHWFRNTLFKERQ — lower, -0.304 ± 0.092
- RPRTRITDDQLKILRAYFDINNSPSEEQIQEMAEISGLSQKVIKHWFRNTLFKERQ — lower, -0.518 ± 0.13
- RPRTRITDDQLKILRAYFDINNSPSEEQIQEMAEQSGLSQKVIKHWFRNTLFKERQ — within error, -0.18 ± 0.098
- RPRTRITDDQLKILRAYFDINNSPSEEQIQEMAEVSGLSQKVIKHWFRNTLFKERQ — lower, -0.418 ± 0.078
- RPRTRITDDQLKILRAYFDINNSPSEEQIQEMAESSGLSQKVIKHWFRNTLFKERQ — within error, -0.192 ± 0.077
- RPRTRITDDQLKILRAYFDINNSPSEEQIQEMAEHSGLSQKVIKHWFRNTLFKERQ — lower, -0.349 ± 0.14
- RPRTRITDDQLKILRAYFDINNSPSEEQIQEMAECSGLSQKVIKHWFRNTLFKERQ — lower, -0.459 ± 0.093
- RPRTRITDDQLKILRAYFDINNSPSEEQIQEMAENSGLSQKVIKHWFRNTLFKERQ — lower, -0.265 ± 0.11
- RPRTRITDDQLKILRAYFDINNSPSEEQIQEMAEPSGLSQKVIKHWFRNTLFKERQ — lower, -1.09 ± 0.16
- RPRTRITDDQLKILRAYFDINNSPSEEQIQEMAEWSGLSQKVIKHWFRNTLFKERQ — lower, -0.615 ± 0.089
- RPRTRITDDQLKILRAYFDINNSPSEEQIQEMAEFSGLSQKVIKHWFRNTLFKERQ — lower, -0.415 ± 0.11
- RPRTRITDDQLKILRAYFDINNSPSEEQIQEMAEKSLLSQKVIKHWFRNTLFKERQ — within error, -0.014 ± 0.086
- RPRTRITDDQLKILRAYFDINNSPSEEQIQEMAEKSHLSQKVIKHWFRNTLFKERQ — within error, -0.137 ± 0.15
- RPRTRITDDQLKILRAYFDINNSPSEEQIQEMAEKSALSQKVIKHWFRNTLFKERQ — within error, -0.164 ± 0.076
- RPRTRITDDQLKILRAYFDINNSPSEEQIQEMAEKSCLSQKVIKHWFRNTLFKERQ — within error, -0.132 ± 0.095
- RPRTRITDDQLKILRAYFDINNSPSEEQIQEMAEKSWLSQKVIKHWFRNTLFKERQ — lower, -0.535 ± 0.08
- RPRTRITDDQLKILRAYFDINNSPSEEQIQEMAEKSFLSQKVIKHWFRNTLFKERQ — lower, -0.46 ± 0.18
- RPRTRITDDQLKILRAYFDINNSPSEEQIQEMAEKSDLSQKVIKHWFRNTLFKERQ — within error, -0.07 ± 0.097
- RPRTRITDDQLKILRAYFDINNSPSEEQIQEMAEKSELSQKVIKHWFRNTLFKERQ — within error, -0.092 ± 0.088
- RPRTRITDDQLKILRAYFDINNSPSEEQIQEMAEKSILSQKVIKHWFRNTLFKERQ — lower, -0.602 ± 0.18
- RPRTRITDDQLKILRAYFDINNSPSEEQIQEMAEKSSLSQKVIKHWFRNTLFKERQ — within error, -0.15 ± 0.081
- RPRTRITDDQLKILRAYFDINNSPSEEQIQEMAEKSRLSQKVIKHWFRNTLFKERQ — within error, -0.032 ± 0.073
- RPRTRITDDQLKILRAYFDINNSPSEEQIQEMAEKSVLSQKVIKHWFRNTLFKERQ — lower, -0.378 ± 0.072
- RPRTRITDDQLKILRAYFDINNSPSEEQIQEMAEKSKLSQKVIKHWFRNTLFKERQ — within error, -0.054 ± 0.1
- RPRTRITDDQLKILRAYFDINNSPSEEQIQEMAEKSNLSQKVIKHWFRNTLFKERQ — within error, 0.032 ± 0.16
- RPRTRITDDQLKILRAYFDINNSPSEEQIQEMAEKSTLSQKVIKHWFRNTLFKERQ — within error, -0.083 ± 0.1
- RPRTRITDDQLKILRAYFDINNSPSEEQIQEMAEKSYLSQKVIKHWFRNTLFKERQ — lower, -0.429 ± 0.14
- RPRTRITDDQLKILRAYFDINNSPSEEQIQEMAEKSQLSQKVIKHWFRNTLFKERQ — within error, -0.052 ± 0.1
- RPRTRITDDQLKILRAYFDINNSPSEEQIQEMAEKSMLSQKVIKHWFRNTLFKERQ — within error, -0.06 ± 0.11
